This note sets out measurements from PMC3990689, “Identification and Characterization of ABA Receptors in Oryza sativa” (PLoS ONE, 2014).

The target in one series is T1, OsPYL2 (Oryza sativa, UniProt Q5Z8S0).
T1 construct: gene PYL9; recombinant, E. coli BL21(DE3), pET-15b, Ni-NTA; mainly dimer; residues named: K74, F76, V98, L102, P103, A104, S107, E109, V125, L132, E162, F180, V184, N188
T1 sequence (Q5Z8S0 1-207): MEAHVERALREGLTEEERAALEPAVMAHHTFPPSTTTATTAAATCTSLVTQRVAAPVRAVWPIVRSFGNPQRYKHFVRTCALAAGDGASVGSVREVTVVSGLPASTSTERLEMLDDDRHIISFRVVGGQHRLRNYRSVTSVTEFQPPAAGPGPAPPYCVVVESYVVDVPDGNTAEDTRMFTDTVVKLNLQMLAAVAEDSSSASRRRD
Description: isothermal titration calorimetry. In kind it is binding. (ITC needs no label: the signal is the heat of the interaction.)

For the next series, the target named is T2, OsPYL11 (with OsPP2C09) (Oryza sativa, UniProt Q6I5C3).
T2 construct: gene PYL5; recombinant, E. coli BL21(DE3), pET-15b; OsPYL11 monomer; equals OsPYL/RCAR5 of earlier work; with Probable protein phosphatase 2C 9
T2 sequence (Q6I5C3 1-209): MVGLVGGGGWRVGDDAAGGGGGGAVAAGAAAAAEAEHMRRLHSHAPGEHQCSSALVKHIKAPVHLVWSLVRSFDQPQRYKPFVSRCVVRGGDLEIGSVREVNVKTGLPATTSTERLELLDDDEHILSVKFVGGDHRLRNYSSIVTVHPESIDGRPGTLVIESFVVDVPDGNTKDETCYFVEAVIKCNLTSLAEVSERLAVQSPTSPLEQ
T2 sequence (Q5N9N2 1-414 partner): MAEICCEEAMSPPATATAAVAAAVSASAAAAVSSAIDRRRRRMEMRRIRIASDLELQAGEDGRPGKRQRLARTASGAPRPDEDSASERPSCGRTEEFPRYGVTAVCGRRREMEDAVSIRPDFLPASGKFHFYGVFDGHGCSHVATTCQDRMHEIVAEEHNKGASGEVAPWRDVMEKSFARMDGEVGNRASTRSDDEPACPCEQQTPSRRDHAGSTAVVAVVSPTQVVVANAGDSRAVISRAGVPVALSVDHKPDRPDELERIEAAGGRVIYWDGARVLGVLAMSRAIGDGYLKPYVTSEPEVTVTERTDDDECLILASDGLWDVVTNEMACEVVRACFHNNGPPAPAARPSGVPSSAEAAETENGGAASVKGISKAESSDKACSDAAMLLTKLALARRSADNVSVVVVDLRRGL
Description: Ser/Thr phosphatase assay, inhibition of OsPP2C09 by receptor. It counts as biochemical. Particulars: ABA ten fold of OsPYL; OsPP2C09 1.8 µM; read at 630 nm.

The target in series [1] is OsPYL12 (Oryza sativa (japonica cultivar-group)). Description: AUC; sedimentation velocity at 4°C, 40,000 rpm; OsPYL proteins at OD280 = 0.75; absorbance at 280 nm; oligomerization state.
For series [2] the target is unchanged. Description: SEC; Superdex-200 HR10/300 GL, 25 mM HEPES pH 7.0, 150 mM NaCl; 500 µL OsPYL (OD280 = 0.75) applied; oligomerization state. (In general: In gel filtration, larger molecules generally elute earlier.)
For series [3] the target is unchanged. Description: static light scattering; DAWN HELLOS II (Wyatt) at 18°C; OsPYLs about 2 mg/mL; calibrated with albumin monomer standard; oligomerization state.
Series [4] concerns the target OsPYL1 (Oryza sativa (japonica cultivar-group)). Description: AUC; sedimentation velocity at 4°C, 40,000 rpm; OsPYL proteins at OD280 = 0.75; absorbance at 280 nm; oligomerization state.
For series [5] the target is unchanged. Description: SEC; Superdex-200 HR10/300 GL, 25 mM HEPES pH 7.0, 150 mM NaCl; 500 µL OsPYL (OD280 = 0.75) applied; oligomerization state.
For series [6] the target is unchanged. Description: static light scattering; DAWN HELLOS II (Wyatt) at 18°C; OsPYLs about 2 mg/mL; calibrated with albumin monomer standard; oligomerization state.
Series [7] concerns the molecule itself. Description: SEC; Superdex-200 HR10/300 GL, 25 mM HEPES pH 7.0, 150 mM NaCl; 500 µL OsPYL (OD280 = 0.75) applied; oligomerization state.

One may read the Kd as the constant that tells how readily two partners part at equilibrium. Regarding `CC1=CC(=O)CC(C)(C)C1(O)/C=C/C(C)=C\C(=O)O` (stereo in doubt) [(+)-ABA], the Kd at OsPYL2 is about 31.3 µM. Also, the “Ser/Thr phosphatase assay, inhibition of OsPP2C09 by receptor” value at OsPYL11 (with OsPP2C09) is on record as “in the presence of ABA, all of the OsPYLs proteins could completely inhibit”.

Broadly, the stoichiometry N is a count of units in the complex or per binding partner. OsPYL12 (receptor): the stoichiometry N in series [1], in series [2] and in series [3] was 2 each time.

Consider OsPYL1 (receptor), for which the stoichiometry N in [4], in [5] and in series [6] was 2 each time.

B1: OsPYL2 (receptor, Oryza sativa (japonica cultivar-group))
chain: T1 sequence (Q5Z8S0 1-207)
notes: OsPYL2, ABA receptor (PYR1/PYL/RCAR ortholog) of Oryza sativa (japonica cultivar-group); Dimer when alone in solution (SEC, SLS, AU); stands with OsPP2C06 and ABA in the crystallised ternary complex; source: E. coli BL21 (DE3), vector pET-15b, purified (Ni-NTA, Source-15Q, Superdex-200); for the complex coexpressed with His6-OsPP2C06 (132-467) in E. coli BL21 (DE3) and purified with 0.2 mM (+)-ABA
For B1, in series [7], the “stoichiometry N” value stood at 2.

B2: OsPYL3 (receptor)
chain: ERGRGGVGAEDARGGADEVAARERLEGVVRAHHTFPAAERAAGPGRRPTCTSLVAQRVDAPLAAVWPIVRGFANPQRYKHFIKSCELAAGDGATVGSVREVAVVSGLPASTSTERLEILDDDRHVLSFRVVGGDHRLRNYRSVTSVTEFSSPSSPPRPYCVVVESYVVDVPEGNTEEDTRMFTDTVVKLNLQKLAAVATSSSPPAAGNHH
On to B2, for which the “stoichiometry N” value in series [7] came to 2.
